Positions count from the first letter of the chain named.

Experiment [1] addresses T1, recombinant human CD40 (R&D systems, Cat. No.: P25942) (human, UniProt P25942 21-193).
T1 construct: also called rCD40; human recombinant CD40
The experiment can be described thus: ELISA, coated rCD40 1.0 µg/mL, CHO culture supernatant. The procedure: Each of the humanized antibody cultures was assayed for reactivity for a recombinant antigen human CD40 (rCD40; R&D systems, Cat. No.: P25942) by ELISA. For this assay, a dilution of rCD40 at a concentration of 1.0 μg/mL in phosphate buffered saline was plated at a density of 100 μL/well into microplates and incubated at 37° C. for one hour to coat the microplates with the antigen which was then blocked by adding a 1× blocking solution (Sigma) in an amount of 200 μl per well and incubating at 37° C. for one hour.
Following one hour of incubation with 100 μL of each of the humanized anti-CD40 antibody cultures at 37° C., the microplates were washed three times with phosphate buffered saline. Treatment with the secondary antibody goat anti-human IgG F(ab′)2-HRP (Jackson Immunoresearch, Cat. No.: 109-035-006) at 37° C. for 30 min was followed by three rounds of washing with phosphate buffered saline. Then, TMB Single Solution (Life Technologies, Cat. No: 002023) was added in an amount of 100 μl per well and incubated at room temperature for 5-10 min in a dark place. Color development was stopped with 100 μL of 1.0 N sulfuric acid and absorbance at 450 nm was measured.
A general note: In an ELISA, binding on a coated surface is turned into a signal by an enzyme label.

Experiment [2] concerns the target T2, recombinant antigen human CD40L (Recombinant Human sCD40 Ligand; Peprotech, Cat. No.: 310-02) (human, UniProt P29965 113-261).
T2 construct: Soluble recombinant CD40L; also called rCD40L; recombinant antigen CD40L
T2 chain: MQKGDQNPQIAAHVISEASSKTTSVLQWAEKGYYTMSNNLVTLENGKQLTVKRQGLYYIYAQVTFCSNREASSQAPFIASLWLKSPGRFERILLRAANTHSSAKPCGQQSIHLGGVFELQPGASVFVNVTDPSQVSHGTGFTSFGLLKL
The experiment is described as follows: ELISA, antigen coated at 1.0 µg/mL, antibody at 1.0 µg/mL, anti-mouse IgG-HRP.

Experiment [3] has as its target T1, recombinant human CD40 (R&D systems, …). The experiment is described as follows: ELISA, coated CD40 100 ng/well, hybridoma culture supernatant. How it is done: Human recombinant CD40 (R&D systems, Cat. No.:P25942) was plated in an amount of 100.0 ng per well into a MaxiSorp ELISA plate and reacted at 37° C. for one hour for antibody coating, followed by blocking by incubation with 200 μL of 1× blocking solution (Sigma) per well at 37° C. for one hour.

Experiment [4] deals with T3, human CD40 expressed on Ramos cell line (ATCC CRL-1596) (human, UniProt P25942 21-277).
T3 construct: whole, on cells; Endogenous CD40 on Ramos cells; also called CD40 on Ramos cells
T3 sequence (P25942 21-277): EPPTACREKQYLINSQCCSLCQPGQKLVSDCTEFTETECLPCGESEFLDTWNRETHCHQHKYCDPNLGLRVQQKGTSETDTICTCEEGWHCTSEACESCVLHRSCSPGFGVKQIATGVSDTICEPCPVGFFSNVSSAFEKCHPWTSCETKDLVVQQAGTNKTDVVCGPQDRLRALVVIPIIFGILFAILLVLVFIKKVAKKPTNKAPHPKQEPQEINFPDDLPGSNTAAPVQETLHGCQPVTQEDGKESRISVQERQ
The experiment can be described thus: flow cytometry on Ramos cells, FITC-5C2 1.0 µg/mL, with or without preincubation with CD40L 15.0 µg/mL. The procedure:
A solution of FITC Isomer I (Invitrogen, Cat. No.: F1906) at a concentration of 2.6 mg/mL in DMSO (Sigma-Aldrich, Cat. No.:276855) was added in an amount of 20.0 μL to each of the antibody solutions. After FITC conjugation by stirring at room temperature for 2 hours, the resulting antibody solutions were dialyzed against phosphate buffered saline to obtain FITC-labeled antibodies.
The cells were washed again with phosphate buffered saline and then subjected to fluorescent immunoassay using flow cytometry (Stratedigm, S1000EXi).
(In flow cytometry, cells or beads pass a laser one at a time.)

In experiment [5] the target is T4, recombinant antigen human CD40 (Sino Biological Inc., Cat. No.: 10774-H02H) (human, UniProt P25942 21-193).
T4 construct: Bought antigen used in the ELISA of the chimeric antibodies
T4 sequence (P25942 21-193 limits assumed): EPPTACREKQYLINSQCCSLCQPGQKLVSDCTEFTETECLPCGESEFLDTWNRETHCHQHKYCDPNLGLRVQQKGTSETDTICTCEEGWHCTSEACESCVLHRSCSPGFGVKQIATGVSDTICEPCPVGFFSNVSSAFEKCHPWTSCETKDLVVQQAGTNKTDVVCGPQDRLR
The experiment is described as follows: ELISA (FIG. 2). How it is done:
A dilution of the recombinant antigen human CD40 (Sino Biological Inc., Cat. No.: 10774-H02H) at a concentration of 1.0 μg/mL in phosphate buffered saline was plated at 100 μL/well into microplates and incubated at 37° C. for one hour to coat the plates therewith. Then, a 1× blocking solution (Sigma) was added in an amount of 200 μL per well and incubated at 37° C. for one hour to block the antigen.
The dilutions were added in an amount of 100 μL/well, incubated at 37° C. for one hour and washed three times with phosphate buffered saline. The antibodies were treated with the secondary antibody goat anti-human IgG F(ab′)2-HRP (Jackson Immunoresearch, Cat. No.: 109-035-006) at 37° C. for 30 min and washed three times with phosphate buffered saline. After reaction with 100 μL of TMB Single Solution (Life Technologies, Cat. No: 002023) per well at room temperature for 4-10 min in a dark place, the color development was stopped with 100 μL of 1.0 N sulfuric acid and then absorbance at 450 nm was measured.

T1 sequence (P25942 21-193 limits assumed, one chain of several): as the sequence (P25942 21-193 limits assumed) above

B1: humanized 5C2 antibody VH1VL2 (a combination of heavy chain VH1 and light chain VL2) (antibody, human IgG2, V domains shown)
VH: QVQLVQSGAEVKKPGASVKVSCKASGYGFTNYLIEWVRQAPGQGLEWIGVINPGYGGVNYNEKFKGRATLTADKSISTAYMELSRLRSDDTAVYFCARGGSGFAFWGQGTLVTVSS
VL: EIVMTQSPATLSVSPGERATLSCRASQDISNHLNWYQQKPGQAVRLLISSTSRLHSGIPARFSGSGSGTEYTLTISSLQSEDFAVYFCQQGNTLPWTFGQGTKVEIK
notes: Tested as CHO culture supernatant
In the case of B1, the binding result in experiment [1] is on record as “binds”.

B2: humanized 5C2 antibody VH3VL2 (a combination of heavy chain VH3 and light chain VL2) (antibody, human IgG2, V domains shown)
VH: B1 VH with A16S, I76T, R85S, D89E
VL: B1 VL
notes: as for B1
Take B2: the binding result in experiment [1] is recorded as “binds”.

B3: humanized 5C2 antibody VH2VL2 (a combination of heavy chain VH2 and light chain VL2) (antibody, human IgG2, V domains shown)
VH: B1 VH with A68V
VL: B1 VL
notes: as for B1
For B3, the binding result in experiment [1] was “binds”.

B4: anti-CD40 mouse monoclonal antibody 5C2 (antibody, V domains shown)
VH: QVQMLQSGTELVRPGTSVKVSCKASGYGFTNYLIEWVKQRPGQGLEWIGVINPGYGGVNYNEKFKGKAILTADKSSSTAYMHLTSLTSDDSAVYFCARGGSGFAFWGQGTLVTVST
VL: DIQMTQTTSSLSASLGQRVTISCRASQDISNHLNWYQQKPNGTVRLLISSTSRLHSGVPSRFSGSGSGTDYSLTISNLEQEDIATYFCQQGNTLPWTFGGGTKLEIK
notes: also called 5C2 antibody (mouse antibody); antibody of hybridoma KCLRF-BP-00381
In the case of B4, the figures for the binding result in experiment [2], in experiment [3] and in experiment [4] were “no binding (tested: 1.0 µg/mL)”, “binds” and “binds”, respectively.

B5: anti-CD40 5C2 chimeric antibody comprising human IgG1 constant region (antibody)
heavy: not shown
light: DIQMTQTTSSLSASLGQRVTISCRASQDISNHLNWYQQKPNGTVRLLISSTSRLHSGVPSRFSGSGSGTDYSLTISNLEQEDIATYFCQQGNTLPWTFGGGTKLEIKRTVAAPSVFIFPPSDEQLKSGTASVVCLLNNFYPREAKVQWKVDNALQSGNSQESVTEQDSKDSTYSLSSTLTLSKADYEKHKVYACEVTHQGLSSPVTKSFNRGEC
notes: expressed in ExpiCHO and purified on Protein A; also called Chimeric IgG1; IgG1 chimeric antibody
Consider B5, for which, in experiment [5], the binding result is on record as “binds”.

B6: anti-CD40 5C2 chimeric antibody comprising human IgG2 constant region (antibody)
heavy: QVQMLQSGTELVRPGTSVKVSCKASGYGFTNYLIEWVKQRPGQGLEWIGVINPGYGGVNYNEKFKGKAILTADKSSSTAYMHLTSLTSDDSAVYFCARGGSGFAFWGQGTLVTVSTASTKGPSVFPLAPCSRSTSESTAALGCLVKDYFPEPVTVSWNSGALTSGVHTFPAVLQSSGLYSLSSVVTVPSSNFGTQTYTCNVDHKPSNTKVDKTVERKCCVECPPCPAPPVAGPSVFLFPPKPKDTLMISRTPEVTCVVVDVSHEDPEVQFNWYVDGVEVHNAKTKPREEQFNSTFRVVSVLTVVHQDWLNGKEYKCKVSNKGLPAPIEKTISKTKGQPREPQVYTLPPSREEMTKNQVSLTCLVKGFYPSDIAVEWESNGQPENNYKTTPPMLDSDGSFFLYSKLTVDKSRWQQGNVFSCSVMHEALHNHYTQKSLSLSPGK
light: B5 light
notes: also called Chimeric IgG2; IgG2 chimeric antibody
As for B6, the binding result in experiment [5] is given as “binds”.

B7: anti-CD40 5C2 chimeric antibody comprising human IgG4 constant region (antibody)
heavy: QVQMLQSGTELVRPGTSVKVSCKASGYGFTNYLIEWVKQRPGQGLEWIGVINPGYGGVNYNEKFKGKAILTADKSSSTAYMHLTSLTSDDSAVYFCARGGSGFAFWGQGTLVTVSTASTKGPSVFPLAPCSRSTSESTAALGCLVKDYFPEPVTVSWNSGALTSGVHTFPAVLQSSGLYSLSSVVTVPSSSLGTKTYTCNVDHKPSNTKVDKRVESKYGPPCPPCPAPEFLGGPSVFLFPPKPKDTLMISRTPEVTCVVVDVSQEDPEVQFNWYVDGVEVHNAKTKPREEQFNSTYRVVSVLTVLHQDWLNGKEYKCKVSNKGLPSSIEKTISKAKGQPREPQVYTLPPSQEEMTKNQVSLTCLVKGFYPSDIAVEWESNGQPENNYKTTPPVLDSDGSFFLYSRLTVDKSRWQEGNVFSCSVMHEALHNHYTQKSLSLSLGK
light: B5 light
notes: also called Chimeric IgG4; IgG4 chimeric antibody
Turning to B7, the binding result in experiment [5] is recorded as “binds”.

B8: humanized 5C2 antibody VH5VL1 (a combination of heavy chain VH5 and light chain VL1) (antibody, human IgG2, V domains shown)
VH: EVQLVQSGAEVKKPGESVKISCKASGYGFTNYLIEWVRQMPGKGLEWIGVINPGYGGVNYNEKFKGQATLSADKSISTAYLQLSSLKASDTAVYFCARGGSGFAFWGQGTLVTVSS
VL: DIQMTQSPSSLSASVGDRVTITCRASQDISNHLNWYQQKPGKAVKLLISSTSRLHSGVPSRFSGSGSGTDYTLTISSLQPEDFATYFCQQGNTLPWTFGQGTKVEIK
notes: as for B1
For the molecule B8, the binding result in experiment [1] is given as “binds”.

B9: humanized 5C2 antibody VH1VL1 (a combination of heavy chain VH1 and light chain VL1) (antibody, human IgG2, V domains shown)
VH: B1 VH
VL: B8 VL
notes: as for B1
With B9, the binding result in experiment [1] was “binds”.

B10: humanized 5C2 antibody VH5VL2 (a combination of heavy chain VH5 and light chain VL2) (antibody, human IgG2, V domains shown)
VH: B8 VH
VL: B1 VL
notes: as for B1
As to B10, the binding result in experiment [1] is on record as “binds”.

B11: humanized 5C2 antibody VH3VL1 (a combination of heavy chain VH3 and light chain VL1) (antibody, human IgG2, V domains shown)
VH: B1 VH with A16S, I76T, R85S, D89E
VL: B8 VL
notes: as for B1
With B11, the binding result in experiment [1] is “binds”.

B12: humanized 5C2 antibody VH2VL1 (a combination of heavy chain VH2 and light chain VL1) (antibody, human IgG2, V domains shown)
VH: B1 VH with A68V
VL: B8 VL
notes: as for B1
B12: the binding result in experiment [1] is on record as “binds”.

(Values after patent US20230192875A1 (KUMHO HT, published 2023).)
